Results reported in patent CN114426582A (SHAANXI PULSE ELEMENT BIOTECHNOLOGY LTD COMPANY, dated 2022).
Each block holds one binder with its values, some of them ahead of it.

Columns and labels:
[1] = biological target: T1, ENO2flag (ENO2 with C-terminal flag tag, pcDNA3.1, expressed in 293T cells) (human, UniProt P09104 2-434, limits assumed); assay: Western blot, lysate of 293T cells transfected with ENO2flag-pcDNA3.1, hybridoma supernatant
T1 construct: Tested as a lysate of transfected 293T cells (Western blot) and in acetone-fixed transfected 293T cells (immunofluorescence); also called ENO2flag-pcDNA3.1; ENO2抗原; not shown: C-terminal flag tag

[2] = biological target: T2, ENO2-GST (human ENO2 expressed from pGEX 4t-1, GST-column purified) (human, UniProt P09104 1-434); assay: ELISA screening of hybridoma supernatants on ENO2-GST coated plates
T2 construct: Expressed in E. coli BL21(DE3) and used to coat ELISA plates at 100 ng/well; also called pGEX 4t-1载体表达的ENO2; ENO2-4t-1; not shown: GST tag supplied by vector pGEX 4t-1

[3] = biological target: T3, 纯化的ENO2蛋白 (coating protein of the Example 7 ELISA) (human, UniProt P09104 1-434); assay: ELISA, ENO2-coated plate (100 ng/well), 293T supernatant, HRP anti-IgG / anti-kappa secondary
T3 construct: also called 抗原ENO2
T3 sequence (P09104 whole entry): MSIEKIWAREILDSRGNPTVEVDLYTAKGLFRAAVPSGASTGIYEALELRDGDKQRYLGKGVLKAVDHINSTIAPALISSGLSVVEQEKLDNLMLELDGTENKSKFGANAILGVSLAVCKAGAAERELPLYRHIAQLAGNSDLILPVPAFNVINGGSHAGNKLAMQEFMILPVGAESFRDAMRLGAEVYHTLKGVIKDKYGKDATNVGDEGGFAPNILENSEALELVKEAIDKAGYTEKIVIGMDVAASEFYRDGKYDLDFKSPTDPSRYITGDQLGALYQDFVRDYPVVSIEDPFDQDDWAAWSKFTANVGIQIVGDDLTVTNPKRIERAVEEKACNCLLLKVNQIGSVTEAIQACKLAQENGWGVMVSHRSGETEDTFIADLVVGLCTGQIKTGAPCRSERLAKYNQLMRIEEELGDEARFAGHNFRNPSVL

T2 sequence (P09104 whole entry): as above
T1 sequence (P09104 2-434 limits assumed): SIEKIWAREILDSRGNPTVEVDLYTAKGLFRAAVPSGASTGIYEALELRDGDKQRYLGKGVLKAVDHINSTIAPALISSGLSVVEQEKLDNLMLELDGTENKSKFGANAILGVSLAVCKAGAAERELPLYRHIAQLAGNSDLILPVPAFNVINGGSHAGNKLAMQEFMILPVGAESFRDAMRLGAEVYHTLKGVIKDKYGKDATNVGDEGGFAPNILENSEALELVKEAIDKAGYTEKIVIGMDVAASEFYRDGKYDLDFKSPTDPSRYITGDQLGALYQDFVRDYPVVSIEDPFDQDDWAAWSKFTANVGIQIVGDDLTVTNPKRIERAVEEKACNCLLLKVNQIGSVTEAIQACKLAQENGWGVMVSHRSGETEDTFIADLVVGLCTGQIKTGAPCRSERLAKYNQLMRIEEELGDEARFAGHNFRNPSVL

binding result [1]: binds | binding result [2]: binds
B1: 抗神经特异性烯醇化酶的单克隆抗体4C11 (hybridoma-derived) (antibody, V domains shown)
VH: EVKLVESGGGLVQPGGSLRLSCATSGFTFTDYYMSWVRQPPGKALEWLGFIRNKANGYTTEYSASVKGRFTISRDNSQSILYLQMNTLRAEDSATYYCARDGDGSARWGQGTLVTVSA
VL: DIQMTQTTSSLSASLGDRVTISCRASQDISNYLNWYQQKPDGTVKLLIYYTSRLHSGVPSRFSGSGSGTDYSLTISNLEQEDIATYFCQQGNTLPYTFGGGTRLEIR
notes: Mouse hybridoma antibody; It was tested as hybridoma supernatant or ascites; also called 4C11单克隆抗体

binding result [3]: no binding
B2: 重组4C11抗体重链4C11mG1 (transfected alone) (other)
heavy: B1 VH
notes: Heavy chain only, with no light chain; tested as 293T culture supernatant; not shown: mouse IgG1 heavy-chain constant region supplied by vector pFUSE-CHIg-mG1 (invivogen)

binding result [3]: no binding
B3: 重组4C11抗体轻链4C11mk (transfected alone) (other)
light: DIQMTQTTSSLSASLGDRVTISCRASQDISNYLNWYQQKPDGTVKLLIYYTSRLHSGVPSRFSGSGSGTDYSLTISNLEQEDIATYFCQQGNTLPYTFGGGTRLEIRRADAAPTVSIFPPSSEQLTSGGASVVCFLNNFYPKDINVKWKIDGSERQNGVLNSWTDQDSKDSTYSMSSTLTLTKDEYERHNSYTCEATHKTSTSPIVKSFNRNEC
notes: Light chain only, with no heavy chain; tested as 293T culture supernatant
